Where no end group is shown, it is not given here. The star is where a group is joined. For = O=C*
How the values were obtained:
FPR1 [1] = settings: non-formyl MLF versus fMLF; cited from earlier work
FPR1 [2] = settings: cited from earlier work
[3] = target: T1, Gαi (α subunit of the Gi1 heterotrimer) (human, UniProt P63096 1-354); assay: cryo-EM structure; settings: both partners purified
T1 construct: Gαi of the Gi1 heterotrimer, human cDNA; The same chain as the first chain of m4; source: Trichoplusia ni Hi5 insect cells (baculovirus), purified as part of the Gi1 heterotrimer (Ni-NTA)
T1 sequence (P63096 whole entry, one chain of several): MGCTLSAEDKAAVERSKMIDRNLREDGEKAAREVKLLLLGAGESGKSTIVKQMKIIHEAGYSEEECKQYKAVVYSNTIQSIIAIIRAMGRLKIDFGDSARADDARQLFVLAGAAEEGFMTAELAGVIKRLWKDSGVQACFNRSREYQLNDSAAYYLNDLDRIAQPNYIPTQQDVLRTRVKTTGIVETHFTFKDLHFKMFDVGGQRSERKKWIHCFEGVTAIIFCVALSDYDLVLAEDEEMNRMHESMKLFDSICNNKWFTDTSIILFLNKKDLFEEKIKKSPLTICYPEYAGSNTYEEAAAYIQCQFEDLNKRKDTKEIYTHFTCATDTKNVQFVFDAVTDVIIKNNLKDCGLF

FPR1 F102A = target: T2, FPR1 F102A (human, UniProt P21462 1-350, F102A); assay: cell-based or functional assay
T2 sequence (looked up): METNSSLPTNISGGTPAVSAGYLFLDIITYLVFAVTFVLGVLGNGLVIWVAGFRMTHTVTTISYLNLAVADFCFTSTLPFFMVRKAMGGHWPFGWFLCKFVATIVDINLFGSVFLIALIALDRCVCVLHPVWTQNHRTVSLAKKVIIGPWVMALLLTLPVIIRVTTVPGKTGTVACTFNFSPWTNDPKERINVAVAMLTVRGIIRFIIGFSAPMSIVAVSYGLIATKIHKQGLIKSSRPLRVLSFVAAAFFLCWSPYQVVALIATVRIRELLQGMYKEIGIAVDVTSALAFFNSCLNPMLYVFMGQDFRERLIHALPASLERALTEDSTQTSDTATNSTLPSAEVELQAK

FPR1 L109A = target: T3, FPR1 L109A (human, UniProt P21462 1-350, L109A); assay: cell-based or functional assay
T3 sequence (looked up): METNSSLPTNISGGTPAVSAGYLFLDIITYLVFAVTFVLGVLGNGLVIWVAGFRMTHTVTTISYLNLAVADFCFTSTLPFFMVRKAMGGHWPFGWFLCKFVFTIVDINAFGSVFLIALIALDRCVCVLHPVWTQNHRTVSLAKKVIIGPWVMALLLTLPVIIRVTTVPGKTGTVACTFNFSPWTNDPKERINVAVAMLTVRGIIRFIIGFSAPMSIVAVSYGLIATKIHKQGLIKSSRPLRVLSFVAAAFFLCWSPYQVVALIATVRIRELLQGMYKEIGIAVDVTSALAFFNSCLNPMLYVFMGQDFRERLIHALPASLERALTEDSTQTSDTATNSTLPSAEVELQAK

FPR1 F110A = target: T4, FPR1 F110A (human, UniProt P21462 1-350, F110A); assay: cell-based or functional assay
T4 sequence (looked up): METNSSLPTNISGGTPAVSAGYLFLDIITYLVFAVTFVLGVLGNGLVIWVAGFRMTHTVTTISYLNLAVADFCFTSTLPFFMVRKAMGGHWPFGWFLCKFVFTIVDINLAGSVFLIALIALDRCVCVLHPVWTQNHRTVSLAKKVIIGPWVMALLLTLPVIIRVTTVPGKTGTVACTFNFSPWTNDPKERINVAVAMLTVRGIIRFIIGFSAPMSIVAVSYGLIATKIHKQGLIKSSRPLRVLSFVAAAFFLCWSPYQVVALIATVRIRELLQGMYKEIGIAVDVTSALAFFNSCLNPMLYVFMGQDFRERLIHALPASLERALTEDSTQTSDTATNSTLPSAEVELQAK

FPR1 T265A = target: T5, FPR1 T265A (human, UniProt P21462 1-350, T265A); assay: cell-based or functional assay
T5 sequence (looked up): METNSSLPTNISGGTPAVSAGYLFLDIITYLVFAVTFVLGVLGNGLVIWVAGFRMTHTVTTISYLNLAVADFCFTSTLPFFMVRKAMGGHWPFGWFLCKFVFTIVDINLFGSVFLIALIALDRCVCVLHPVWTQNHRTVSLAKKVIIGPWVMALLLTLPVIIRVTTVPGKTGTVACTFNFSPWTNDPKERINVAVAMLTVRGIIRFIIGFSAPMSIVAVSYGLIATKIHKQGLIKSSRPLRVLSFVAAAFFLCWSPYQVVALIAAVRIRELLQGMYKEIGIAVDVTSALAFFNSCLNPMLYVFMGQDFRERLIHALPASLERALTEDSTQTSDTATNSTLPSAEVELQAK

FPR1 V283A = target: T6, FPR1 V283A (human, UniProt P21462 1-350, V283A); assay: cell-based or functional assay
T6 sequence (looked up): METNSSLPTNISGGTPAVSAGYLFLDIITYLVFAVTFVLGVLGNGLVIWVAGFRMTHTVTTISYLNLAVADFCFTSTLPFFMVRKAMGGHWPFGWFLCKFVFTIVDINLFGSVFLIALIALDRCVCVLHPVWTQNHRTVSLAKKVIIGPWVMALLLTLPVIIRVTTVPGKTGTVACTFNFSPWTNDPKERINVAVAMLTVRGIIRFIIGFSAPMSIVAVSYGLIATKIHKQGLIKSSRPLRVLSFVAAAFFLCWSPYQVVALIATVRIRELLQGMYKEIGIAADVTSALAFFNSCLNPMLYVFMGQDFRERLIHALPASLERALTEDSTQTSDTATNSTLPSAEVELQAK

FPR1 F291A = target: T7, FPR1 F291A (human, UniProt P21462 1-350, F291A); assay: cell-based or functional assay
T7 sequence (looked up): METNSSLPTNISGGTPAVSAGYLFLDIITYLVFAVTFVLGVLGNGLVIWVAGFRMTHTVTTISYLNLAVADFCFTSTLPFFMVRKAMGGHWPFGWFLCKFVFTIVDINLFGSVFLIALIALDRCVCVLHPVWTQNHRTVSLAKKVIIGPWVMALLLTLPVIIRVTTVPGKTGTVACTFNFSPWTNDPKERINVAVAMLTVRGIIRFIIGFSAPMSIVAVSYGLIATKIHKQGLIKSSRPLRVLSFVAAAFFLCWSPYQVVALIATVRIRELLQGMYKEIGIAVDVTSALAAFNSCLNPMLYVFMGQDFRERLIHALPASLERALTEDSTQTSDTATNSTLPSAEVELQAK

[4] = target: T8, WT FPR1 expressed in HeLa cells (human, UniProt P21462 1-350); assay: cell-based or functional assay
T8 sequence (looked up): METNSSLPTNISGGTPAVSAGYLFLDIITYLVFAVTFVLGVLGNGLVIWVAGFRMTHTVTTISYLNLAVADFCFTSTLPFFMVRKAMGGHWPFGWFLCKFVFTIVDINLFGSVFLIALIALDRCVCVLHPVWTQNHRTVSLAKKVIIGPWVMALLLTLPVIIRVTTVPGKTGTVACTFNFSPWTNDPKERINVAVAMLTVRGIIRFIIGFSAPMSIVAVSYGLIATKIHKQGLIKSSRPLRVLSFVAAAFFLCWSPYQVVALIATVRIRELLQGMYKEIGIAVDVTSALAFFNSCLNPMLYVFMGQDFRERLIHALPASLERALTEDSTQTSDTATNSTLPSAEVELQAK

FPR1 F81A = target: T9, FPR1 F81A (human, UniProt P21462 1-350, F81A); assay: cell-based or functional assay
T9 sequence (looked up): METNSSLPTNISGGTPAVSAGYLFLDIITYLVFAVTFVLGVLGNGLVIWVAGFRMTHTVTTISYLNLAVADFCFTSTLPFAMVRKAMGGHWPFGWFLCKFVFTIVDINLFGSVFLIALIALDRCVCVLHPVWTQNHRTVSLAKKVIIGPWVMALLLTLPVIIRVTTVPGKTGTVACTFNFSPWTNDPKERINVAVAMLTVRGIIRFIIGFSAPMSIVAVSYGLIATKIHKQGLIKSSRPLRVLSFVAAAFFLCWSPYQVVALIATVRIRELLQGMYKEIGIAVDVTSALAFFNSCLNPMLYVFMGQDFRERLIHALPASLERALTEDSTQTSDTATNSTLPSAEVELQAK

Met-Leu-Phe [MLF]
orders of magnitude less potent in FPR1 binding (FPR1 [1]): 3 orders of magnitude

tBoc-MLF
pharmacological property at FPR1 (FPR1 [2]): antagonist

B1: formyl peptide receptor 1 (FPR1), N-terminal FLAG tag and C-terminal 6 x His tag (receptor, human)
chain: METNSSLPTNISGGTPAVSAGYLFLDIITYLVFAVTFVLGVLGNGLVIWVAGFRMTHTVTTISYLNLAVADFCFTSTLPFFMVRKAMGGHWPFGWFLCKFVFTIVDINLFGSVFLIALIALDRCVCVLHPVWTQNHRTVSLAKKVIIGPWVMALLLTLPVIIRVTTVPGKTGTVACTFNFSPWTNDPKERINVAVAMLTVRGIIRFIIGFSAPMSIVAVSYGLIATKIHKQGLIKSSRPLRVLSFVAAAFFLCWSPYQVVALIATVRIRELLQGMYKEIGIAVDVTSALAFFNSCLNPMLYVFMGQDFRERLIHALPASLERALTEDSTQTSDTATNSTLPSAEVELQAK
notes: formyl peptide receptor 1, Homo sapiens, cDNA Gene ID 2357; Solubilised in DDM/CHS and exchanged to LMNG (later LMNG/GDN/CHS); also called human FPR1; source: Sf9 insect cells (baculovirus), purified (anti-FLAG M1 resin, SEC) in detergent; not shown: FLAG, N-terminal, kept
binding result [3]: binds

B2: fMet-Leu-Phe (fMLF) (peptide)
peptide: For-Met-Leu-Phe
pEC50 of inhibition of forskolin-elevated cAMP, transfected HeLa cells (FPR1 F102A): 8.5 | pEC50 of inhibition of forskolin-elevated cAMP, transfected HeLa cells (FPR1 L109A): 8.1 | pEC50 of inhibition of forskolin-elevated cAMP, transfected HeLa cells (FPR1 F110A): 8.6 | pEC50 of inhibition of forskolin-elevated cAMP, transfected HeLa cells (FPR1 T265A): 7.8 | pEC50 of inhibition of forskolin-elevated cAMP, transfected HeLa cells (FPR1 V283A): 8.8 | pEC50 of inhibition of forskolin-elevated cAMP, transfected HeLa cells (FPR1 F291A): 8.4 | pEC50 of inhibition of forskolin-elevated cAMP, transfected HeLa cells [4]: 9.1 | pEC50 of inhibition of forskolin-elevated cAMP, transfected HeLa cells (FPR1 F81A): 8.1
